In the series the target is T1, Heat gamma.
T1 chain: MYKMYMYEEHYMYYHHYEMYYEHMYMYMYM

B1: activated recombinant MMP1 (protein)
chain: FVLTEGNPRWEQTHLTYRIENYTPDLPRADVDHAIEKAFQLWSNVTPLTFTKVSEGQADIMISFVRGDHRDNSPFDGPGGNLAHAFQPGPGIGGDAHFDEDERWTNNFREYNLHRVAAHELGHSLGLSHSTDIGALMYPSYTFSGDVQLAQDDIDGIQAIYGRSQNPVQPIGPQTPKACDSKLTFDAITTIRGEVMFFKDRFYMRTNPFYPEVELNFISVFWPQLPNGLEAAYEFADRDEVRFFKGNKYWAVQGQNVLHGYPKDIYSSFGFPRTVKHIDAALSEENTGKTYFFVANKYWRYDEYKRSMDPGYPKMIAHDFPGIGHKVDAVFMKDGFFYFFHGTRQYKFDPKTKRILTLQKANSWFNCRKN
For B1, the “cleavage of Fluorogenic Peptide substrate I by 0.2 µg activated recombinant MMP1, 60 µg Heat Gamma” value is “Heat gamma efficiently inhibits the MMP1 activity as indicated by a decrease in relative fluorescence”.

B2: activated recombinant MMP2 (protein)
chain: YNFFPRKPKWDKNQITYRIIGYTPDLDPETVDDAFARAFQVWSDVTPLRFSRIHDGEADIMINFGRWEHGDGYPFDGKDGLLAHAFAPGTGVGGDSHFDDDELWTLGEGQVVRVKYGNADGEYCKFPFLFNGKEYNSCTDTGRSDGFLWCSTTYNFEKDGKYGFCPHEALFTMGGNAEGQPCKFPFRFQGTSYDSCTTEGRTDGYRWCGTTEDYDRDKKYGFCPETAMSTVGGNSEGAPCVFPFTFLGNKYESCTSAGRSDGKMWCATTANYDDDRKWGFCPDQGYSLFLVAAHEFGHAMGLEHSQDPGALMAPIYTYTKNFRLSQDDIKGIQELYGASPDIDLGTGPTPTLGPVTPEICKQDIVFDGIAQIRGEIFFFKDRFIWRTVTPRDKPMGPLLVATFWPELPEKIDAVYEAPQEEKAVFFAGNEYWIYSASTLERGYPKPLTSLGLPPDVQRVDAAFNWSKNKKTYIFAGDKFWRYNEVKKKMDPGFPKLIADAWNAIPDNLDAVVDLQGGGHSYFFKGAYYLKLENQSLKSVKFGSIKSDWLGC
Regarding B2, the “cleavage of Fluorogenic Peptide substrate I by 0.2 µg activated recombinant MMP2, 60 µg Heat Gamma” value is given as “Heat gamma efficiently inhibits the MMP2 activity as indicated by a decrease in relative fluorescence”.
